Measurements as given in US20080096811A1, “[…] VPAC2 RECEPTOR PEPTIDE AGONISTS” (Eli Lilly and Company, published 2008).
One block for each binder: values may come before it. *1 amine or outer side, *2 acyl side, *3 side chain or, on linkers, in order; H or OH if unused. Where no end group is shown, it is not given here. Side-chain parts run from the residue outwards. The star is where a group is joined. γGlu = O=C(O)[C@H](CCC(=O)[*:2])N[*:1]; Hydrocinnamoyl = O=C(CCc1ccccc1)*; Palmitoyl = CCCCCCCCCCCCCCCC(=O)*; Hexanoyl = CCCCCC(=O)*; Bz = O=C(c1ccccc1)*

Biological target: T1, human VPAC2 receptor (human) (UniProt P41587)
T1 sequence: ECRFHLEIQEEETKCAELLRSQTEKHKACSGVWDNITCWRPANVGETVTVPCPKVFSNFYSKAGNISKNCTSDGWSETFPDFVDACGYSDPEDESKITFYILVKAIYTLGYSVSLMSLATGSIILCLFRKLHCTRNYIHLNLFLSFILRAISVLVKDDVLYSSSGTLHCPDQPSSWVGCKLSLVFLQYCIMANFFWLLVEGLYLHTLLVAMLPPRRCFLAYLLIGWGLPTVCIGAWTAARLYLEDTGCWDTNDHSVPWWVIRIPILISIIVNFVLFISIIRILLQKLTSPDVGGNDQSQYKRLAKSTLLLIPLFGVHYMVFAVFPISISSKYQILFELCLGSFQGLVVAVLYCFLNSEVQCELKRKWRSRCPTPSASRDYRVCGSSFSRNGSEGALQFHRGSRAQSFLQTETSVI

EC50 (nM) for cAMP generation, Alpha Screen: 0.12 nM
B3: P178 (peptide)
peptide: Hexanoyl-HSDAVFTDNYTRLRKAAAAKKYLQSIKNSRTSPPP-NH2
SMILES: CCCCCC(=O)N[C@@H](Cc1c[nH]cn1)C(=O)N[C@@H](CO)C(=O)N[C@@H](CC(=O)O)C(=O)N[C@@H](C)C(=O)N[C@H](C(=O)N[C@@H](Cc1ccccc1)C(=O)N[C@H](C(=O)N[C@@H](CC(=O)O)C(=O)N[C@@H](CC(N)=O)C(=O)N[C@@H](Cc1ccc(O)cc1)C(=O)N[C@H](C(=O)N[C@@H](CCCNC(=N)N)C(=O)N[C@@H](CC(C)C)C(=O)N[C@@H](CCCNC(=N)N)C(=O)N[C@@H](CCCCN)C(=O)N[C@@H](C)C(=O)N[C@@H](C)C(=O)N[C@@H](C)C(=O)N[C@@H](C)C(=O)N[C@@H](CCCCN)C(=O)N[C@@H](CCCCN)C(=O)N[C@@H](Cc1ccc(O)cc1)C(=O)N[C@@H](CC(C)C)C(=O)N[C@@H](CCC(N)=O)C(=O)N[C@@H](CO)C(=O)N[C@H](C(=O)N[C@@H](CCCCN)C(=O)N[C@@H](CC(N)=O)C(=O)N[C@@H](CO)C(=O)N[C@@H](CCCNC(=N)N)C(=O)N[C@H](C(=O)N[C@@H](CO)C(=O)N1CCC[C@H]1C(=O)N1CCC[C@H]1C(=O)N1CCC[C@H]1C(N)=O)[C@@H](C)O)[C@@H](C)CC)[C@@H](C)O)[C@@H](C)O)C(C)C

EC50 (nM) for cAMP generation, Alpha Screen: 1.78 nM
B4: P128 (peptide)
peptide: HSDAVFTDNYTRLRKQVAAKKYLQSIKNSRTSPPPK(Trp)-NH2
modifications: N-terminus assumed
SMILES: CC[C@H](C)[C@H](NC(=O)[C@H](CO)NC(=O)[C@H](CCC(N)=O)NC(=O)[C@H](CC(C)C)NC(=O)[C@H](Cc1ccc(O)cc1)NC(=O)[C@H](CCCCN)NC(=O)[C@H](CCCCN)NC(=O)[C@H](C)NC(=O)[C@H](C)NC(=O)[C@@H](NC(=O)[C@H](CCC(N)=O)NC(=O)[C@H](CCCCN)NC(=O)[C@H](CCCNC(=N)N)NC(=O)[C@H](CC(C)C)NC(=O)[C@H](CCCNC(=N)N)NC(=O)[C@@H](NC(=O)[C@H](Cc1ccc(O)cc1)NC(=O)[C@H](CC(N)=O)NC(=O)[C@H](CC(=O)O)NC(=O)[C@@H](NC(=O)[C@H](Cc1ccccc1)NC(=O)[C@@H](NC(=O)[C@H](C)NC(=O)[C@H](CC(=O)O)NC(=O)[C@H](CO)NC(=O)[C@@H](N)Cc1c[nH]cn1)C(C)C)[C@@H](C)O)[C@@H](C)O)C(C)C)C(=O)N[C@@H](CCCCN)C(=O)N[C@@H](CC(N)=O)C(=O)N[C@@H](CO)C(=O)N[C@@H](CCCNC(=N)N)C(=O)N[C@H](C(=O)N[C@@H](CO)C(=O)N1CCC[C@H]1C(=O)N1CCC[C@H]1C(=O)N1CCC[C@H]1C(=O)N[C@@H](CCCCNC(=O)[C@@H](N)Cc1c[nH]c2ccccc12)C(N)=O)[C@@H](C)O

EC50 (nM) for cAMP generation, Alpha Screen: 0.06 nM
B6: P157 (peptide)
peptide: Hexanoyl-HSDAVFTDQYTRLRKQVAAKKYLQSIKQSRTSPPP-NH2
SMILES: CCCCCC(=O)N[C@@H](Cc1c[nH]cn1)C(=O)N[C@@H](CO)C(=O)N[C@@H](CC(=O)O)C(=O)N[C@@H](C)C(=O)N[C@H](C(=O)N[C@@H](Cc1ccccc1)C(=O)N[C@H](C(=O)N[C@@H](CC(=O)O)C(=O)N[C@@H](CCC(N)=O)C(=O)N[C@@H](Cc1ccc(O)cc1)C(=O)N[C@H](C(=O)N[C@@H](CCCNC(=N)N)C(=O)N[C@@H](CC(C)C)C(=O)N[C@@H](CCCNC(=N)N)C(=O)N[C@@H](CCCCN)C(=O)N[C@@H](CCC(N)=O)C(=O)N[C@H](C(=O)N[C@@H](C)C(=O)N[C@@H](C)C(=O)N[C@@H](CCCCN)C(=O)N[C@@H](CCCCN)C(=O)N[C@@H](Cc1ccc(O)cc1)C(=O)N[C@@H](CC(C)C)C(=O)N[C@@H](CCC(N)=O)C(=O)N[C@@H](CO)C(=O)N[C@H](C(=O)N[C@@H](CCCCN)C(=O)N[C@@H](CCC(N)=O)C(=O)N[C@@H](CO)C(=O)N[C@@H](CCCNC(=N)N)C(=O)N[C@H](C(=O)N[C@@H](CO)C(=O)N1CCC[C@H]1C(=O)N1CCC[C@H]1C(=O)N1CCC[C@H]1C(N)=O)[C@@H](C)O)[C@@H](C)CC)C(C)C)[C@@H](C)O)[C@@H](C)O)C(C)C

EC50 (nM) for cAMP generation, Alpha Screen: 0.29 nM
B7: P156 (peptide)
peptide: Hexanoyl-HSDAVFTDNYTRLLLKVAAKKYLQSIKNSRTSPPP-NH2
SMILES: CCCCCC(=O)N[C@@H](Cc1c[nH]cn1)C(=O)N[C@@H](CO)C(=O)N[C@@H](CC(=O)O)C(=O)N[C@@H](C)C(=O)N[C@H](C(=O)N[C@@H](Cc1ccccc1)C(=O)N[C@H](C(=O)N[C@@H](CC(=O)O)C(=O)N[C@@H](CC(N)=O)C(=O)N[C@@H](Cc1ccc(O)cc1)C(=O)N[C@H](C(=O)N[C@@H](CCCNC(=N)N)C(=O)N[C@@H](CC(C)C)C(=O)N[C@@H](CC(C)C)C(=O)N[C@@H](CC(C)C)C(=O)N[C@@H](CCCCN)C(=O)N[C@H](C(=O)N[C@@H](C)C(=O)N[C@@H](C)C(=O)N[C@@H](CCCCN)C(=O)N[C@@H](CCCCN)C(=O)N[C@@H](Cc1ccc(O)cc1)C(=O)N[C@@H](CC(C)C)C(=O)N[C@@H](CCC(N)=O)C(=O)N[C@@H](CO)C(=O)N[C@H](C(=O)N[C@@H](CCCCN)C(=O)N[C@@H](CC(N)=O)C(=O)N[C@@H](CO)C(=O)N[C@@H](CCCNC(=N)N)C(=O)N[C@H](C(=O)N[C@@H](CO)C(=O)N1CCC[C@H]1C(=O)N1CCC[C@H]1C(=O)N1CCC[C@H]1C(N)=O)[C@@H](C)O)[C@@H](C)CC)C(C)C)[C@@H](C)O)[C@@H](C)O)C(C)C

Further lines, the binder ahead of its results:

B1: P90 (peptide)
peptide: Hydrocinnamoyl-HSDAVFTDNYTRLRKQVAAKKYLQSIKNSRTSPPP-NH2
SMILES: CC[C@H](C)[C@H](NC(=O)[C@H](CO)NC(=O)[C@H](CCC(N)=O)NC(=O)[C@H](CC(C)C)NC(=O)[C@H](Cc1ccc(O)cc1)NC(=O)[C@H](CCCCN)NC(=O)[C@H](CCCCN)NC(=O)[C@H](C)NC(=O)[C@H](C)NC(=O)[C@@H](NC(=O)[C@H](CCC(N)=O)NC(=O)[C@H](CCCCN)NC(=O)[C@H](CCCNC(=N)N)NC(=O)[C@H](CC(C)C)NC(=O)[C@H](CCCNC(=N)N)NC(=O)[C@@H](NC(=O)[C@H](Cc1ccc(O)cc1)NC(=O)[C@H](CC(N)=O)NC(=O)[C@H](CC(=O)O)NC(=O)[C@@H](NC(=O)[C@H](Cc1ccccc1)NC(=O)[C@@H](NC(=O)[C@H](C)NC(=O)[C@H](CC(=O)O)NC(=O)[C@H](CO)NC(=O)[C@H](Cc1c[nH]cn1)NC(=O)CCc1ccccc1)C(C)C)[C@@H](C)O)[C@@H](C)O)C(C)C)C(=O)N[C@@H](CCCCN)C(=O)N[C@@H](CC(N)=O)C(=O)N[C@@H](CO)C(=O)N[C@@H](CCCNC(=N)N)C(=O)N[C@H](C(=O)N[C@@H](CO)C(=O)N1CCC[C@H]1C(=O)N1CCC[C@H]1C(=O)N1CCC[C@H]1C(N)=O)[C@@H](C)O
EC50 (nM) for cAMP generation, Alpha Screen: 4.01 nM
EC50 (nM) for cAMP generation, DiscoveRx: 1.7 nM

B2: P80 (peptide)
peptide: HSDAVFTDNYTRLRKQVAAKKYLQSIKNSRTSPPPK([γGlu-Palmitoyl])-NH2
modifications: N-terminus assumed
SMILES: CCCCCCCCCCCCCCCC(=O)N[C@@H](CCC(=O)NCCCC[C@H](NC(=O)[C@@H]1CCCN1C(=O)[C@@H]1CCCN1C(=O)[C@@H]1CCCN1C(=O)[C@H](CO)NC(=O)[C@@H](NC(=O)[C@H](CCCNC(=N)N)NC(=O)[C@H](CO)NC(=O)[C@H](CC(N)=O)NC(=O)[C@H](CCCCN)NC(=O)[C@@H](NC(=O)[C@H](CO)NC(=O)[C@H](CCC(N)=O)NC(=O)[C@H](CC(C)C)NC(=O)[C@H](Cc1ccc(O)cc1)NC(=O)[C@H](CCCCN)NC(=O)[C@H](CCCCN)NC(=O)[C@H](C)NC(=O)[C@H](C)NC(=O)[C@@H](NC(=O)[C@H](CCC(N)=O)NC(=O)[C@H](CCCCN)NC(=O)[C@H](CCCNC(=N)N)NC(=O)[C@H](CC(C)C)NC(=O)[C@H](CCCNC(=N)N)NC(=O)[C@@H](NC(=O)[C@H](Cc1ccc(O)cc1)NC(=O)[C@H](CC(N)=O)NC(=O)[C@H](CC(=O)O)NC(=O)[C@@H](NC(=O)[C@H](Cc1ccccc1)NC(=O)[C@@H](NC(=O)[C@H](C)NC(=O)[C@H](CC(=O)O)NC(=O)[C@H](CO)NC(=O)[C@@H](N)Cc1c[nH]cn1)C(C)C)[C@@H](C)O)[C@@H](C)O)C(C)C)[C@@H](C)CC)[C@@H](C)O)C(N)=O)C(=O)O
EC50 (nM) for cAMP generation, Alpha Screen: 1.82 nM
EC50 (nM) for cAMP generation, DiscoveRx: 2.8 nM

B5: P91 (peptide)
peptide: Bz-HSDAVFTDNYTRLRKQVAAKKYLQSIKNSRTSPPP-NH2
SMILES: CC[C@H](C)[C@H](NC(=O)[C@H](CO)NC(=O)[C@H](CCC(N)=O)NC(=O)[C@H](CC(C)C)NC(=O)[C@H](Cc1ccc(O)cc1)NC(=O)[C@H](CCCCN)NC(=O)[C@H](CCCCN)NC(=O)[C@H](C)NC(=O)[C@H](C)NC(=O)[C@@H](NC(=O)[C@H](CCC(N)=O)NC(=O)[C@H](CCCCN)NC(=O)[C@H](CCCNC(=N)N)NC(=O)[C@H](CC(C)C)NC(=O)[C@H](CCCNC(=N)N)NC(=O)[C@@H](NC(=O)[C@H](Cc1ccc(O)cc1)NC(=O)[C@H](CC(N)=O)NC(=O)[C@H](CC(=O)O)NC(=O)[C@@H](NC(=O)[C@H](Cc1ccccc1)NC(=O)[C@@H](NC(=O)[C@H](C)NC(=O)[C@H](CC(=O)O)NC(=O)[C@H](CO)NC(=O)[C@H](Cc1c[nH]cn1)NC(=O)c1ccccc1)C(C)C)[C@@H](C)O)[C@@H](C)O)C(C)C)C(=O)N[C@@H](CCCCN)C(=O)N[C@@H](CC(N)=O)C(=O)N[C@@H](CO)C(=O)N[C@@H](CCCNC(=N)N)C(=O)N[C@H](C(=O)N[C@@H](CO)C(=O)N1CCC[C@H]1C(=O)N1CCC[C@H]1C(=O)N1CCC[C@H]1C(N)=O)[C@@H](C)O
EC50 (nM) for cAMP generation, Alpha Screen: 1.9 nM
EC50 (nM) for cAMP generation, DiscoveRx: 0.76 nM
